Source: patent publication US20240392023A1 (ABCLON, published 2024)

B1: scFv CAR of anti CD30 antibody (T1-8), on CAR-T cells (other)
chain: EVQLLESGGGLVQPGGSLRLSCAASGFTFSSYMSWVRQAPGKGLEWVSSIGSGYYSTYYADSVKGRFTISRDNSKNTLYLQMNSLRAEDTAVYYCARDYYGGFDYWGQGTLVTVSSGGGGSGGGGSGGGGSQSVLTQPPSASGTPGQRVTISCSGSSSNIGSNYVYWYQQLPGTAPKLLIYRNNQRPSGVPDRFSGSKSGTSASLAISGLRSEDEADYYCAAYDSYSYVFGGGTKLTVLGGQAGQTTTPAPRPPTPAPTIASQPLSLRPEACRPAAGGAVHTRGLDFACDIYIWAPLAGTCGVLLLSLVITLYCKRGRKKLLYIFKQPFMRPVQTTQEEDGCSCRFPEEEEGGCELRVKFSRSADAPAYQQGQNQLYNELNLGRREEYDVLDKRRGRDPEMGGKPRRKNPQEGLYNELQKDKMAEAYSEIGMKGERRRGKGHDGLYQGLSTATKDTYDALHMQALPPR
B2: scFv CAR of anti CD30 antibody (T1-23), on CAR-T cells (other)
chain: EVQLLESGGGLVQPGGSLRLSCAASGFTFSSYSMSWVRQAPGKGLEWVSGIGYPYYTYYADSVKGRFTISRDNSKNTLYLQMNSLRAEDTAVYYCARYYYDYGFDYWGQGTLVTVSSGGGGSGGGGSGGGGSQSVLTQPPSASGTPGQRVTISCSGSSSNIGSNYVYWYQQLPGTAPKLLIYRNNQRPSGVPDRFSGSKSGTSASLAISGLRSEDEADYYCAAYRSYDYVFGGGTKLTVLGGQAGQTTTPAPRPPTPAPTIASQPLSLRPEACRPAAGGAVHTRGLDFACDIYIWAPLAGTCGVLLLSLVITLYCKRGRKKLLYIFKQPFMRPVQTTQEEDGCSCRFPEEEEGGCELRVKFSRSADAPAYQQGQNQLYNELNLGRREEYDVLDKRRGRDPEMGGKPRRKNPQEGLYNELQKDKMAEAYSEIGMKGERRRGKGHDGLYQGLSTATKDTYDALHMQALPPR
B3: scFv CAR of anti CD30 antibody (T1-2), on CAR-T cells (other)
chain: EVQLLESGGGLVQPGGSLRLSCAASGFTFSGYGMSWVRQAPGKGLEWVSYISGYSYYTYYADSVKGRFTFSRDNSKNTLYLQMNSLRAEDTAVYYCARYDGNGFDYWGQGTLVTVSSGGGGSGGGGSGGGGSQSVLTQPPSASGTPGQRVTISCSGSSSNIGSNYVYWYQQLPGTAPKLLIYRNNQRPSGVPDRFSGSKSGTSASLAISGLRSEDEADYYCAADSSDDSYVFGGGTKLTVLGGQAGQTTTPAPRPPTPAPTIASQPLSLRPEACRPAAGGAVHTRGLDFACDIYIWAPLAGTCGVLLLSLVITLYCKRGRKKLLYIFKQPFMRPVQTTQEEDGCSCRFPEEEEGGCELRVKFSRSADAPAYQQGQNQLYNELNLGRREEYDVLDKRRGRDPEMGGKPRRKNPQEGLYNELQKDKMAEAYSEIGMKGERRRGKGHDGLYQGLSTATKDTYDALHMQALPPR
B4: scFv CAR of anti CD30 antibody (T1-10), on CAR-T cells (other)
chain: EVQLLESGGGLVQPGGSLRLSCAASGFTFSSYGMSWVRQAPGKGLEWVSYISGGSYYTYYADSVKGRFTISRDNSKNTLYLQMNSLRAEDTAVYYCARYGYGYYDGSFDYWGQGTLVTVSSGGGGSGGGGSGGGGSQSVLTQPPSASGTPGQRVTISCSGSSSNIGSNYVYWYQQLPGTAPKLLIYRNNQRPSGVPDRFSGSKSGTSASLAISGLRSEDEADYYCAADGPYNYVFGGGTKLTVLGGQAGQTTTPAPRPPTPAPTIASQPLSLRPEACRPAAGGAVHTRGLDFACDIYIWAPLAGTCGVLLLSLVITLYCKRGRKKLLYIFKQPFMRPVQTTQEEDGCSCRFPEEEEGGCELRVKFSRSADAPAYQQGQNQLYNELNLGRREEYDVLDKRRGRDPEMGGKPRRKNPQEGLYNELQKDKMAEAYSEIGMKGERRRGKGHDGLYQGLSTATKDTYDALHMQALPPR
B5: scFv CAR of anti CD30 antibody (T1-36), on CAR-T cells (other)
chain: EVQLLESGGGLVQPGGSLRLSCAASGFTFSYYYMSWVRQAPGKGLEWVSYIGGGGSGTYYADSVKGRFTISRDNSKNTLYLQMNSLRAEDTAVYYCARGPYYGYFDYWGQGTLVTVSSGGGGSGGGGSGGGGSQSVLTQPPSASGTPGQRVTISCSGSSSNIGSNYVYWYQQLPGTAPKLLIYRNNQRPSGVPDRFSGSKSGTSASLAISGLRSEDEADYYCAAYPSYDSYVFGGGTKLTVLGGQAGQTTTPAPRPPTPAPTIASQPLSLRPEACRPAAGGAVHTRGLDFACDIYIWAPLAGTCGVLLLSLVITLYCKRGRKKLLYIFKQPFMRPVQTTQEEDGCSCRFPEEEEGGCELRVKFSRSADAPAYQQGQNQLYNELNLGRREEYDVLDKRRGRDPEMGGKPRRKNPQEGLYNELQKDKMAEAYSEIGMKGERRRGKGHDGLYQGLSTATKDTYDALHMQALPPR
B6: scFv CAR of anti CD30 antibody (T1-7), on CAR-T cells (other)
chain: EVQLLESGGGLVQPGGSLRLSCAASGFTFSGYGMSWVRQAPGKGLEWVSYISSGSYYTYYADSVKGRFTISRDNSKNTLYLQMNSLRAEDTAVYYCARYRGDNDYYGYFDYWGQGTLVTVSSGGGGSGGGGSGGGGSQSVLTQPPSASGTPGQRVTISCSCSSSNIGNNAVSWYQQLPGTAPKLLIYRNNQRPSGVPDRFSGSKSGTSASLAISGLRSEDEADYYCAADYGSDYVFGGGTKLTVLGGQAGQTTTPAPRPPTPAPTIASQPLSLRPEACRPAAGGAVHTRGLDFACDIYIWAPLAGTCGVLLLSLVITLYCKRGRKKLLYIFKQPFMRPVQTTQEEDGCSCRFPEEEEGGCELRVKFSRSADAPAYQQGQNQLYNELNLGRREEYDVLDKRRGRDPEMGGKPRRKNPQEGLYNELQKDKMAEAYSEIGMKGERRRGKGHDGLYQGLSTATKDTYDALHMQALPPR
B7: scFv CAR of anti CD30 antibody (T1-117), on CAR-T cells (other)
chain: EVQLLESGGGLVQPGGSLRLSCAASGFTFSYYGMSWVRQAPGKGLEWVSYISGYSSYTYYADSVKGRFTISRDNSKNTLYLQMNSLRAEDTAVYYCARYNDSGSFDYWGQGTLVTVSSGGGGSGGGGSGGGGSQSVLTQPPSASGTPGQRVTISCSGSSSNIGSNYVYWYQQLPGTAPKLLIYRNNQRPSGVPDRFSGSKSGTSASLAISGLRSEDEADYYCAADAGNRYVFGGGTKLTVLGGQAGQTTTPAPRPPTPAPTIASQPLSLRPEACRPAAGGAVHTRGLDFACDIYIWAPLAGTCGVLLLSLVITLYCKRGRKKLLYIFKQPFMRPVQTTQEEDGCSCRFPEEEEGGCELRVKFSRSADAPAYQQGQNQLYNELNLGRREEYDVLDKRRGRDPEMGGKPRRKNPQEGLYNELQKDKMAEAYSEIGMKGERRRGKGHDGLYQGLSTATKDTYDALHMQALPPR

Assays:
[1] = target: T1, CD30 expressed on cells (CD30-293T, SUDHL1, HDLM-2) (UniProt P28908 19-595); assay: cell-based or functional assay
T1 sequence (looked up): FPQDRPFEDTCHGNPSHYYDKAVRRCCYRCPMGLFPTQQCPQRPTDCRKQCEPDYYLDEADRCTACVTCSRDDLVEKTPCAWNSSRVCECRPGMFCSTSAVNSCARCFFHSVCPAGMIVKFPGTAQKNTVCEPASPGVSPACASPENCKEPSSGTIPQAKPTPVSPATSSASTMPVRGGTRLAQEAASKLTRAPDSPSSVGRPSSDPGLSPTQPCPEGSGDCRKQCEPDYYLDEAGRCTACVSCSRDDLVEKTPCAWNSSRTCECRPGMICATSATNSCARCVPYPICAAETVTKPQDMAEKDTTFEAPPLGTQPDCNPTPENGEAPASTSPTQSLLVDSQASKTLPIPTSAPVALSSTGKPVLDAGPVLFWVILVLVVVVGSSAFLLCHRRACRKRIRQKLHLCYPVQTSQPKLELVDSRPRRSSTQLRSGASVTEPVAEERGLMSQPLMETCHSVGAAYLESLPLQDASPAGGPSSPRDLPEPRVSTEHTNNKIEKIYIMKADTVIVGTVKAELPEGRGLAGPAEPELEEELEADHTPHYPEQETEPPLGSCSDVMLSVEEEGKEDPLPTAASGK

[2] = target: T1, CD30 expressed on cells (CD30-293T, …); assay: cell-based or functional assay; remark: listed apart in the source

| Binder | Cytotoxicity (%) against CD30-expressing cell (SUDHL1), CAR-T/Target 0.11 [1] [%] | Cytotoxicity (%) against CD30-expressing cell (SUDHL1), CAR-T/Target 0.33 [1] [%] | Cytotoxicity (%) against CD30-expressing cell (SUDHL1), CAR-T/Target 1 [1] [%] | Cytotoxicity (%) against CD30-expressing cell (CD30-293T), CAR-T/Target 0.11 [2] [%] | Cytotoxicity (%) against CD30-expressing cell (CD30-293T), CAR-T/Target 0.33 [2] [%] | Cytotoxicity (%) against CD30-expressing cell (CD30-293T), CAR-T/Target 1 [2] [%] |
| --- | --- | --- | --- | --- | --- | --- |
| B1 | 43 | 60 | 78 | -8 | 0 | 35 |
| B2 | 37 | 68 | 84 | 7 | 41 | 79 |
| B3 | 11 | 35 | 54 | 1 | 7 | 13 |
| B4 | 33 | 60 | 81 | 1 | 7 | 33 |
| B5 | 48 | 89 | 95 | 21 | 78 | 98 |
| B6 | 8 | 18 | 34 | -5 | -2 | -2 |
| B7 | -2 | 11 | 21 | -3 | -1 | -14 |
